Test results as given in article PMC4505335, “Selective targeting of PPARγ by the natural product chelerythrine with a unique binding mode and improved antidiabetic potency” (Scientific Reports, 2015).
Where no end group is shown, it is not given here. The star is where a group is joined. Biotin = O=C1N[C@H]2[C@H](CS[C@H]2CCCCC(=O)*)N1

Tests used:
PPARγ = target: T1, PPARγ (Homo sapiens, UniProt P37231); assay: crystal structure at […] Å; Lantha TR-FRET competitive binding; AlphaScreen
T1 construct: gene PPARG; no SRC1 peptide; In-house His6-LBD 206-477 (E. coli) used for crystal and kinase assay
T1 sequence (P37231 234-505 limits assumed): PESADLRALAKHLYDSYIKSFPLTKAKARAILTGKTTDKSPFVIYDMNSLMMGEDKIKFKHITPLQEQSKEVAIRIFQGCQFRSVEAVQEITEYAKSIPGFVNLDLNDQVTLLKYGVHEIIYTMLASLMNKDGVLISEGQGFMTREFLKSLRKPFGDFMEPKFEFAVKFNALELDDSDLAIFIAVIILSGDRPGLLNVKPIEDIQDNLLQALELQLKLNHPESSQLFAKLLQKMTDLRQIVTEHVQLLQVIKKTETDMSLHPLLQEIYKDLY

[1] = target: T2, Human PPARγ LBD (residues 206–477) (human, UniProt P37231-2 206-477); assay: AlphaScreen or HTRF; hexahistidine detection kit; about 20–40 nmol/l His6-PPARγ LBD and 20 nmol/l biotinylated peptide, 5 μg/ml donor and acceptor beads; 50 mmol/l MOPS, 50 mmol/l NaF, 0.05 mmol/l CHAPS, 0.1 mg/ml BSA, pH 7.4; with rosiglitazone (1 μmol/l, and dose curves); conditions: both partners purified
T2 construct: The tag is detected in the AlphaScreen (hexahistidine detection kit); also called NR1C3; source: E. coli BL21(DE3), purified (Ni HiTrap HP, SP-Sepharose); not shown: His6, N-terminal, kept
T2 sequence (looked up): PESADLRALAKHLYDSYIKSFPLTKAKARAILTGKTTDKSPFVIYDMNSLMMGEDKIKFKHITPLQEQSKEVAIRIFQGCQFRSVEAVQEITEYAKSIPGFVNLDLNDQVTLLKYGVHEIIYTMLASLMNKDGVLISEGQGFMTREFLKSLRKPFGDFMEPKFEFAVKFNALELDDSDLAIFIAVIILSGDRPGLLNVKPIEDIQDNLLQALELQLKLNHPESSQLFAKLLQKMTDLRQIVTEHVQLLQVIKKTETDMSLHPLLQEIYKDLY

[2] = target: T2, Human PPARγ LBD (residues 206–477); assay: AlphaScreen or HTRF; hexahistidine detection kit; about 20–40 nmol/l His6-PPARγ LBD and 20 nmol/l biotinylated peptide, 5 μg/ml donor and acceptor beads; 50 mmol/l MOPS, 50 mmol/l NaF, 0.05 mmol/l CHAPS, 0.1 mg/ml BSA, pH 7.4; with chelerythrine (5 μmol/l, and dose curves); conditions: both partners purified

Molecule	binding result [1]	further results
COc1ccc2c(c[n+](C)c3c4cc5c(cc4ccc23)OCO5)c1OC [CHE, chelerythrine]	–	IC50 (PPARγ): 566 nM
Biotin-SPSSHSSLTERHKILHRLLQEGSP [SRC1 coactivator peptide, N-terminally biotinylated]	binds	–
Biotin-QEPVSPKKKENALLRYLLDKDDTKD [SRC2 coactivator peptide, N-terminally biotinylated]	binds	–
Biotin-GHSFADPASNLGLEDIIRKALMGSF (second corepressor motif peptide from NCoR (nuclear receptor corepressor 1; not the gene NCOR2/SMRT); also called NCoR-2 corepressor) [NCoR-2, a corepressor peptide from NCoR, N-terminally biotinylated]	–	binding result [2]: binds
